Measured values reported in patent US6124449, “High affinity TGFβ nucleic acid ligands and inhibitors” (NeXstar Pharmaceuticals, Inc.).
Substitutions are numbered along the chain they refer to.

Key:
[1] = target: T1, TGF-beta1 (hTGF-beta1) (Homo sapiens, UniProt P01137 P01137:279-390); test: filter; monophasic, plateau 8%; settings: tags: R&D Systems; biotinylated form (NFTG0) used for BIAcore; chain copies: 2
[2] = target: T1, TGF-beta1 (hTGF-beta1); test: filter; monophasic; settings: tags: R&D Systems; biotinylated form (NFTG0) used for BIAcore; chain copies: 2
[3] = target: T1, TGF-beta1 (hTGF-beta1); test: filter; biphasic; Kd1 56.6 nM; P2 2.4%; settings: tags: R&D Systems; biotinylated form (NFTG0) used for BIAcore; chain copies: 2
[4] = target: T1, TGF-beta1 (hTGF-beta1); test: filter; biphasic; Kd1 58.2 nM; P2 1.2%; settings: tags: R&D Systems; biotinylated form (NFTG0) used for BIAcore; chain copies: 2
[5] = target: T1, TGF-beta1 (hTGF-beta1); test: filter; biphasic; Kd1 4.05±1.5 nM; settings: tags: R&D Systems; biotinylated form (NFTG0) used for BIAcore; chain copies: 2
[6] = target: T1, TGF-beta1 (hTGF-beta1); test: filter; biphasic; Kd1 8.5±1.8 nM; settings: tags: R&D Systems; biotinylated form (NFTG0) used for BIAcore; chain copies: 2
[7] = target: T1, TGF-beta1 (hTGF-beta1); test: cell_activity; MLEC assay; settings: tags: R&D Systems, biotinylated form (NFTG0) used for BIAcore, chain copies: 2
Experimental: Cells were plated at 10^5/mL in 96-well plates in MEM, 10 mM HEPES and 0.2% FBS. Following 4 hours of incubation at 37° C., when cells appeared to attach to the well surface, TGFβ1 was added at 2 pM with or without TGFβ1 ligands that ranged from 0.1 nM to 1 µM. In a second assay performed in order to determine cross-species reactivity, rather than using hTGFβ, a conditioned serum-free medium (CM) was used. CM was conditioned by culturing it in murine 3T3 fibroblast for 48 hours. Before use, this conditioned medium was heat treated at 80° C. for 10 minutes to activate the 3T3 cell derived TGFβ and then it was diluted to 50% and supplemented with 0.2% murine serum. In each assay, hTGFβ1 (or CM) was diluted appropriately in MEM and FBS (0.2% or murine serum) and the ligands were diluted in MEM. TGFβ1 (or CM) and ligand dilutions at 10× the final concentration were premixed at equal volumes and then were added to the cells. Following addition of the TGFβ1 (or CM)-ligand mixture, the cells were incubated for 16–18 hours prior to addition of ^3H-thymidine at 0.25 µCi per well and continued incubation for 7–8 additional hours. After incubation, the cells were washed and harvested with SKATRON filtering units and ^3H-thymidine incorporation in cellular DNA was quantitated by scintillation counting in Ecoscint. Data were plotted and analyzed as described in Park et al. (1990) J. Exp. Med. 171:1073) and Dower et al. (1984) J. Immunol.

[8] = target: T1, TGF-beta1 (hTGF-beta1); test: filter; biphasic; Kd1 4.4±1.6 nM; settings: tags: R&D Systems; biotinylated form (NFTG0) used for BIAcore; chain copies: 2
[9] = target: T1, TGF-beta1 (hTGF-beta1); test: filter; biphasic; Kd1 5.6±2.0 nM; settings: tags: R&D Systems; biotinylated form (NFTG0) used for BIAcore; chain copies: 2
[10] = target: T1, TGF-beta1 (hTGF-beta1); test: filter; biphasic; Kd1 13.5±4.2 nM; settings: tags: R&D Systems; biotinylated form (NFTG0) used for BIAcore; chain copies: 2
[11] = target: T1, TGF-beta1 (hTGF-beta1); test: filter; monophasic, plateau about 10%; Table 3 and Table 4 sequences differ slightly; settings: tags: R&D Systems; biotinylated form (NFTG0) used for BIAcore; chain copies: 2
[12] = target: T1, TGF-beta1 (hTGF-beta1); test: filter; biphasic; Kd1 3.7±1.5 nM; settings: tags: R&D Systems; biotinylated form (NFTG0) used for BIAcore; chain copies: 2
[13] = target: T1, TGF-beta1 (hTGF-beta1); test: filter; biphasic; Kd1 3.7±0.6 nM; settings: tags: R&D Systems; biotinylated form (NFTG0) used for BIAcore; chain copies: 2
[14] = target: T1, TGF-beta1 (hTGF-beta1); test: filter; biphasic; Kd1 4.2±2.2 nM; settings: tags: R&D Systems; biotinylated form (NFTG0) used for BIAcore; chain copies: 2
[15] = target: T1, TGF-beta1 (hTGF-beta1); test: filter; biphasic; Kd1 2.82±1.7 nM; settings: tags: R&D Systems; biotinylated form (NFTG0) used for BIAcore; chain copies: 2
[16] = target: T1, TGF-beta1 (hTGF-beta1); test: filter; biphasic; Kd1 14.0±6.4 nM; settings: tags: R&D Systems; biotinylated form (NFTG0) used for BIAcore; chain copies: 2

T1 sequence (P01137 279-390, one chain of several): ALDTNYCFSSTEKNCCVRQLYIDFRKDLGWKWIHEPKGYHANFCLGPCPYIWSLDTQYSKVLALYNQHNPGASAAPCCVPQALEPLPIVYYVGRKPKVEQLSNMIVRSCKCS

B1: 20-04 (ssRNA)
RNA: GGGAGGACGAUGCGGUGUCUUUAGCUUAGGUGAUUCCUUCUGCCGCAGACGACUCGCCCGA
modifications: 2'-F C and U
B1 gave a Kd [1] of 0.2 nM.

B2: 30-37 (ssRNA)
RNA: B1 RNA with A23G, U26C
modifications: 2'-F C and U
In the case of B2, the Kd [2] is reported as 2.65 nM.

B3: 30-43 (ssRNA)
RNA: B1 RNA with U26C
modifications: 2'-F C and U
With B3 the Kd [2] was 50.5 nM.

B4: 30-06 (ssRNA)
RNA: B1 RNA with U18C, U31C, G32U, A33U, U35G
modifications: 2'-F C and U
B4 was tested, and the Kd [3] was 0.0741 nM.

B5: 30-03 (ssRNA)
RNA: B1 RNA with U26C, U27C
modifications: 2'-F C and U
B5 gave a Kd [4] of 0.262 nM.

B6: 30-10 (ssRNA)
RNA: B1 RNA with U26C
modifications: 2'-F C and U
In the case of B6, the Kd [5] is reported as 0.0755 nM.

B7: 40-54 (ssRNA)
RNA: GGGAGGACGAUGCGGUUAGGGGCGUCAACACCGCUAUCAUAACUUUCGCUUCCCCAGACGACUCGCCCGA
modifications: 2'-F C and U
B7 was tested, and the Kd [6] was 0.00675 nM.

B8: 40-16 (ssRNA)
RNA: B7 RNA with C38U, U40C, A42U, U50C
modifications: 2'-F C and U
Work on B8 yielded a Ki [7] of 0.6 nM.

B9: 40-58 (ssRNA)
RNA: B7 RNA with G19U, C38U, U40C, U50C
modifications: 2'-F C and U
Binder B9 has a Kd [8] of 0.0053 nM and a Ki [7] of 0.9 nM.

B10: 40-64 (ssRNA)
RNA: B7 RNA with C38U, U40C, C43U, U44C, C49U, U50C, C52U
modifications: 2'-F C and U
B10 was tested, and the Kd [9] was 0.0031 nM.

B11: 40-61,76 (ssRNA)
RNA: B7 RNA with C38U, U40C, C43U, U44C, C52U
modifications: 2'-F C and U
Work on B11 yielded a Kd [10] of 0.001 nM.

B12: 40-14 (ssRNA)
RNA: GGGAGGACGAUGCGGCAUUAUGGCGUCAACAUGCCGGUUUUCGAUUCUCAUUGUCCAGACGACUCGCCCGA
modifications: 2'-F C and U
B12 gave a Ki [7] of 3.9 nM.

B13: 40-56 (ssRNA)
RNA: GGGAGGACGAUGCGGUUAGGGCGUCAACACCGCUAUUACAACUUUCGCCUCCCCAGACGACUCGCCCGA
modifications: 2'-F C and U
For B13, the Ki [7] was 7.4 nM.

B14: 40-36 (ssRNA)
RNA: GGGAGGACGAUGCGGGUCAAGGUUACGCCGUCGGACCCUACUGCCCCCAGACGACUCGCCCGA
modifications: 2'-F C and U
With B14 the Kd [2] was 41.7 nM.

B15: 30-15 (ssRNA)
RNA: GGGAGGACGAUGCGGUUGACCGUUAAGACGGCAUGAUGUGGUCCGCAGACGACUCGCCCGA
modifications: 2'-F C and U
For B15, the Kd [2] was 55.3 nM.

B16: 30-22 (ssRNA)
RNA: B15 RNA with G18A, U24A, G40U, G41U
modifications: 2'-F C and U
B16 was tested, and the Kd [2] was 2.47 nM.

B17: 20-05 (ssRNA)
RNA: GGGAGGACGAUGCGGUGUCUCUACCUUAGGUUGAUUCCUUCUACCGCAGACGACUCGCCCGA
modifications: 2'-F C and U
B17 gave a Kd [11] of 0.11 nM.

B18: 40-08 (ssRNA)
RNA: GGGAGGACGAUGCGGCGCAAGGUUACGCCGUCGGACCCUGCUGCCAACAUCCUCCCAGACGACUCGCCCGA
modifications: 2'-F C and U
In the case of B18, the Kd [2] is reported as 15.4 nM.

B19: 40-77 (ssRNA)
RNA: GGGAGGACGAUGCGGUUAUGGGCGUCAACACCGCUAUUACAACUUUCGCCCCCCAGACGACUCGCCCGA
modifications: 2'-F C and U
Binder B19 has a Kd [12] of 0.00173 nM.

B20: 40-06 (ssRNA)
RNA: GGGAGGACGAUGCGGUUAGGGGCGUCAACACCGCUAUCAUAAUUUUCGCCUUCCCCAGACGACUCGCCCGA
modifications: 2'-F C and U
B20 was tested, and the Kd [13] was 0.0016 nM.

B21: 40-60 (ssRNA)
RNA: B20 RNA with G19U, C38U, U40C, A42G, U52C
modifications: 2'-F C and U
In the case of B21, the Ki ([7]; label: 5'-biotin for BIAcore specificity, proposed double pseudoknot) is reported as 0.8 nM.

B22: 30-34 (ssRNA)
RNA: GGGAGGACGAUGCGGUGUCUAUAGCCUUGAUUACAUCAUCUGCCUCAGACGACUCGCCCGA
modifications: 2'-F C and U
Binder B22 has a Kd [2] of 9.5 nM.

B23: 40-19 (ssRNA)
RNA: GGGAGGACGAUGCGGUUAGCGCGAGUUCAACACCGCAUGUGAUUCUUUCGCCUCCCAGACGACUCGCCCGA
modifications: 2'-F C and U
In the case of B23, the Kd [14] is reported as 0.0037 nM and the Ki [7] is reported as 28 nM.

B24: 40-38 (ssRNA)
RNA: GGGAGGACGAUGCGGAGAUAAUUAUCAGCGGUGGACGGGGUGCCGGUACUGCCGCCAGACGACUCGCCCGA
modifications: 2'-F C and U
In the case of B24, the Kd [2] is reported as 21.8 nM.

B25: 40-13 (ssRNA)
RNA: GGGAGGACGAUGCGGAGCAAGGUUACGAGGUCGGACCCUGCUGCCAACAUCCUCCCCAGACGACUCGCCCGA
modifications: 2'-F C and U
Binder B25 has a Kd [2] of 15.4 nM.

B26: 40-20 (ssRNA)
RNA: B25 RNA with A16U, G17A, A28C, G29C
modifications: 2'-F C and U
B26 gave a Kd [2] of 11.2 nM.

B27: 40-44 (ssRNA)
RNA: B25 RNA with A16U, A28C, G29C
modifications: 2'-F C and U
B27 was tested, and the Kd [2] was 11.1 nM.

B28: 40-40 (ssRNA)
RNA: B25 RNA with A16C, G17C, A28C, G29C, G40A, A49U
modifications: 2'-F C and U
B28 showed a Kd [2] of 18 nM.

B29: 40-33 (ssRNA)
RNA: B25 RNA with A28C, G29C
modifications: 2'-F C and U
Binder B29 has a Kd [2] of 26.6 nM.

B30: 30-12,24,21,40,41 (ssRNA)
RNA: GGGAGGACGAUGCGGUGUCUAUAGCCUGAUUUUUAAUCUCUGCCGCAGACGACUCGCCCGA
modifications: 2'-F C and U
Work on B30 yielded a Kd [15] of 0.0608 nM.

B31: 40-32 (ssRNA)
RNA: GGGAGGACGAUGCGGUUAUGGGCGUCAACACCGCUAUUACAACUUUCGCCUCCAGACGACUCGCCCGA
modifications: 2'-F C and U
B31 was tested, and the Kd [16] was 0.005 nM.

B32: 40-55 (ssRNA)
RNA: GGGAGGACGAUGCGGUUAGGGGCGUCAACACCGCUAUUCAACCUUCGCUUCCCCAGACGACUCGCCCGA
modifications: 2'-F C and U
For B32, the Ki [7] was 2.9 nM.

B33: 40-29 (ssRNA)
RNA: GGGAGGACGAUGCGGGACCCUUUUCUGCGAUUCAACUCGUACGUCUUCUCACGUGCAGACGACUCGCCCGA
modifications: 2'-F C and U
For B33, the Kd [2] was 10.9 nM.

B34: 40-12 (ssRNA)
RNA: B33 RNA with U23G, C42G, C45U
modifications: 2'-F C and U
Binder B34 has a Ki [7] of 6.88 nM.

B35: 30-08 (ssRNA)
RNA: GGGAGGACGAUGCGGCGGAAUUUUUGUUGAGCCGUAUGCCGCCAGACGACUCGCCCGA
modifications: 2'-F C and U
For B35, the Kd [2] was 10.2 nM.
